The assay has as its target Adnectin C-PAS#1(200). In words: SPR; Biacore X100, 25 °C, HBS-EP buffer pH 7.4, CM5 chip; His-tagged Adnectins captured on amine-coupled anti-His antibody (about 300 RU); rhVEGFR2 injected at 50-3.125 ug/ml; multi cycle kinetics, contact 180 s, dissociation 500 s.

For orientation: Kd means the free concentration of one partner at which half of the binding sites on the other are occupied at equilibrium, for simple one-to-one binding. Lower therefore signals a tighter complex. As a reminder, the koff is the rate constant with which the complex falls apart. The low end stands for slow dissociation, the high end for fast dissociation. For orientation: kon means the second-order rate constant of association. For “rhVEGFR2 (Genescript) (from UniProt P35968 20-764) (receptor)”, the equilibrium dissociation constant (Kd) was 0.159 nM, the off-rate constant (koff) was 2.48e-05 s⁻¹ and the kon was determined as 156000 M⁻¹ s⁻¹.

Source of the values: publication PMC6393559.
